From US20220281949A1 (UNIVERSITY HEALTH NETWORK, published 2022)

Target: T1, soluble CD4 (sCD4): human CD4 extracellular domain fused with a 6×His tag via a GS linker (human, UniProt P01730 26-396)
T1 construct: Produced in HEK293T supernatant; for staining the monomer was dimerized with a PE-labeled anti-6×His mAb (AD1.1.10); also called dimerized sCD4
Test: flow cytometry: K562 cells expressing the class II molecule stained with sCD4 dimerized by PE anti-His mAb

B1: wild-type DR1 (DRA1*01:01/DRB1*01:01) on K562 cells (peptide-MHC, human)
MHC II alpha: not shown
MHC II beta: not shown
notes: whole, on cells; Stably transduced in class II-deficient K562 cells
B1: no binding.
